One may read the IC50 as the midpoint of a concentration-inhibition curve.

Results on five molecules are retold here after patent publication US20140087995A1 (published 2014).

Assay [1] addresses T1, rat calcitonin receptor (rat, UniProt P32214 25-516).
T1 construct: whole, on cells; Membranes of BHK tk'ts 13 cells transiently transfected with the rat calcitonin receptor; also called rCTR; rat calcitonin (a) receptor
T1 sequence (looked up): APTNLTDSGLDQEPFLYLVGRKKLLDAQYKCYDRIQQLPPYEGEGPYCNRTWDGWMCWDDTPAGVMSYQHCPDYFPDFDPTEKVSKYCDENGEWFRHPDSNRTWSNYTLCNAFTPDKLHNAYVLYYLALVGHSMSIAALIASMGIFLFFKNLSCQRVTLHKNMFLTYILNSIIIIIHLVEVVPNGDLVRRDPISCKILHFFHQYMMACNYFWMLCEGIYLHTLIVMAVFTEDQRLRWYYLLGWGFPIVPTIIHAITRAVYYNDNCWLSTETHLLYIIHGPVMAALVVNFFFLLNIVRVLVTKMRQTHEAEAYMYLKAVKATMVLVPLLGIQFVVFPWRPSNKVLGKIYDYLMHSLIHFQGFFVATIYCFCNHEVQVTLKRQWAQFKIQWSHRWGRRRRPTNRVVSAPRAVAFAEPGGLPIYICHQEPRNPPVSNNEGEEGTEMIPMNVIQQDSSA
In words: SPA competition vs 125I-calcitonin, membranes with rat CTR (Assay VIII).

In assay [2] the target is T1, rat calcitonin receptor. As to the kind of experiment: IC50 at rCTR divided by IC50 at rAmylin-R (reference).
The target of assay [3] is T2, human calcitonin receptor (human, UniProt P30988 25-474).
T2 construct: whole, on cells; Membranes of a BHK tk'ts 13 cell line stably transfected with the human calcitonin receptor; also called hCTR; hCT
T2 sequence (looked up): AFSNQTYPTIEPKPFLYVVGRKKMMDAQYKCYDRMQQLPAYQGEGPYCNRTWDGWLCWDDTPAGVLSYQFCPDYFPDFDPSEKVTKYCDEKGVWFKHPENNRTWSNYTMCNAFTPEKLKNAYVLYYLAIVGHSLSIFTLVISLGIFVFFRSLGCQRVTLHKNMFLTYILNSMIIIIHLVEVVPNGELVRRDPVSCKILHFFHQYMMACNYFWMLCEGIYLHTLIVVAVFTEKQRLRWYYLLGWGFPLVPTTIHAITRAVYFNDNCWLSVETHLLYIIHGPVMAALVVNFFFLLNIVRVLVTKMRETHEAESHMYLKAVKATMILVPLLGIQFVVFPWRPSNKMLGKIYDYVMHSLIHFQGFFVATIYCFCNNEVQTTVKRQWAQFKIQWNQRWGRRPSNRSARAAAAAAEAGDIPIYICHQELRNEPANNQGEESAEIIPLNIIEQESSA
In words: IC50 at hCTR divided by IC50 at hAmylin-R (reference). The method in brief: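 Competition binding by SPA with cell membranes (35 ng/μL) and SPA beads in 50 mM Hepes pH 7.4 with 1 mM CaCl2, 5 mM MgCl2, 0.1% OA and 0.02% Tween20. Incubated 120 min at 25 °C with shaking, then counted.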

In assay [4] the target is T3, rat amylin receptor (rat calcitonin receptor + rat RAMP 3) (rat, UniProt P32214 25-516; Q9JJ73 23-147).
T3 construct: whole, on cells; Membranes of BHK tk'ts 13 cells transiently transfected with the rat calcitonin receptor and rat RAMP 3; also called rAmylin-R; rat amylin 3(a) receptor
T3 sequence (looked up) 1: T1 sequence (looked up)
T3 sequence (looked up) 2: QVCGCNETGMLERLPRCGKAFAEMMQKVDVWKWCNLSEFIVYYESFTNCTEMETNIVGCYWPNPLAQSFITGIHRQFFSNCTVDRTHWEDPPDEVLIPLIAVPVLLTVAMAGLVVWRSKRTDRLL
As to the kind of experiment: SPA competition vs 125I-rat amylin, membranes with rat CTR + rat RAMP3 (Assay VI).

Numbered stars: 1 amine (or outer) side, 2 acyl side, 3 side chain; on linkers, the order of the positions; unused ones are H or OH. Bridge positions count the residues as written; N and C are the ends. * marks the point of attachment. C20 diacid = O=C(O)CCCCCCCCCCCCCCCCCCC(=O)*; γGlu = O=C(O)[C@H](CCC(=O)[*:2])N[*:1]

B1: N^α1-[(4S)-4-carboxy-4-(19-carboxynonadecanoylamino)butanoyl]-[Glu14,Arg17,Pro21,Pro27,His34]-h-amylin (peptide)
peptide: {C20 diacid-γGlu}-KCNTATCATQRLAEFLRHSSPNFGAIPSSTNVGHNTY-NH2
modifications: disulfide 2-7
SMILES: CC[C@H](C)[C@H](NC(=O)[C@H](C)NC(=O)CNC(=O)[C@H](Cc1ccccc1)NC(=O)[C@H](CC(N)=O)NC(=O)[C@@H]1CCCN1C(=O)[C@H](CO)NC(=O)[C@H](CO)NC(=O)[C@H](Cc1c[nH]cn1)NC(=O)[C@H](CCCNC(=N)N)NC(=O)[C@H](CC(C)C)NC(=O)[C@H](Cc1ccccc1)NC(=O)[C@H](CCC(=O)O)NC(=O)[C@H](C)NC(=O)[C@H](CC(C)C)NC(=O)[C@H](CCCNC(=N)N)NC(=O)[C@H](CCC(N)=O)NC(=O)[C@@H](NC(=O)[C@H](C)NC(=O)[C@@H]1CSSC[C@H](NC(=O)[C@H](CCCCN)NC(=O)CC[C@H](NC(=O)CCCCCCCCCCCCCCCCCCC(=O)O)C(=O)O)C(=O)N[C@@H](CC(N)=O)C(=O)N[C@@H]([C@@H](C)O)C(=O)N[C@@H](C)C(=O)N[C@@H]([C@@H](C)O)C(=O)N1)[C@@H](C)O)C(=O)N1CCC[C@H]1C(=O)N[C@@H](CO)C(=O)N[C@@H](CO)C(=O)N[C@H](C(=O)N[C@@H](CC(N)=O)C(=O)N[C@H](C(=O)NCC(=O)N[C@@H](Cc1c[nH]cn1)C(=O)N[C@@H](CC(N)=O)C(=O)N[C@H](C(=O)N[C@@H](Cc1ccc(O)cc1)C(N)=O)[C@@H](C)O)C(C)C)[C@@H](C)O
notes: modifications are with respect to human amylin; also called compound 17
B1: the half-inhibitory concentration (IC50) in assay [1] was 97.2 nM; in assay [4], 2.71 nM. Moreover, the “Ratio rCT/rAmylin binding” value in assay [2] stood at 35.9. The “Ratio hCT/hAmylin binding” value in assay [3] was 12.5.

B2: N^α1-[(4S)-4-carboxy-4-(19-carboxynonadecanoylamino)butanoyl]-[Glu14,Arg17,Pro21,Pro27,Pro29]-h-amylin (peptide)
peptide: {C20 diacid-γGlu}-KCNTATCATQRLAEFLRHSSPNFGAIPSPTNVGSNTY-NH2
modifications: disulfide 2-7
SMILES: CC[C@H](C)[C@H](NC(=O)[C@H](C)NC(=O)CNC(=O)[C@H](Cc1ccccc1)NC(=O)[C@H](CC(N)=O)NC(=O)[C@@H]1CCCN1C(=O)[C@H](CO)NC(=O)[C@H](CO)NC(=O)[C@H](Cc1c[nH]cn1)NC(=O)[C@H](CCCNC(=N)N)NC(=O)[C@H](CC(C)C)NC(=O)[C@H](Cc1ccccc1)NC(=O)[C@H](CCC(=O)O)NC(=O)[C@H](C)NC(=O)[C@H](CC(C)C)NC(=O)[C@H](CCCNC(=N)N)NC(=O)[C@H](CCC(N)=O)NC(=O)[C@@H](NC(=O)[C@H](C)NC(=O)[C@@H]1CSSC[C@H](NC(=O)[C@H](CCCCN)NC(=O)CC[C@H](NC(=O)CCCCCCCCCCCCCCCCCCC(=O)O)C(=O)O)C(=O)N[C@@H](CC(N)=O)C(=O)N[C@@H]([C@@H](C)O)C(=O)N[C@@H](C)C(=O)N[C@@H]([C@@H](C)O)C(=O)N1)[C@@H](C)O)C(=O)N1CCC[C@H]1C(=O)N[C@@H](CO)C(=O)N1CCC[C@H]1C(=O)N[C@H](C(=O)N[C@@H](CC(N)=O)C(=O)N[C@H](C(=O)NCC(=O)N[C@@H](CO)C(=O)N[C@@H](CC(N)=O)C(=O)N[C@H](C(=O)N[C@@H](Cc1ccc(O)cc1)C(N)=O)[C@@H](C)O)C(C)C)[C@@H](C)O
notes: modifications are with respect to human amylin; also called compound 37
Turning to B2, the values for the IC50 in assay [1] and in assay [4] were 7.35 nM and 0.514 nM, respectively. The “Ratio rCT/rAmylin binding” value in assay [2] was 14.3. The “Ratio hCT/hAmylin binding” value in assay [3] was 2.3.

B3: N^α1-[(4S)-4-carboxy-4-(19-carboxynonadecanoylamino)butanoyl]-[Glu14,Arg17,Pro21,Pro27,His35]-h-amylin (peptide)
peptide: {C20 diacid-γGlu}-KCNTATCATQRLAEFLRHSSPNFGAIPSSTNVGSHTY-NH2
modifications: disulfide 2-7
SMILES: CC[C@H](C)[C@H](NC(=O)[C@H](C)NC(=O)CNC(=O)[C@H](Cc1ccccc1)NC(=O)[C@H](CC(N)=O)NC(=O)[C@@H]1CCCN1C(=O)[C@H](CO)NC(=O)[C@H](CO)NC(=O)[C@H](Cc1c[nH]cn1)NC(=O)[C@H](CCCNC(=N)N)NC(=O)[C@H](CC(C)C)NC(=O)[C@H](Cc1ccccc1)NC(=O)[C@H](CCC(=O)O)NC(=O)[C@H](C)NC(=O)[C@H](CC(C)C)NC(=O)[C@H](CCCNC(=N)N)NC(=O)[C@H](CCC(N)=O)NC(=O)[C@@H](NC(=O)[C@H](C)NC(=O)[C@@H]1CSSC[C@H](NC(=O)[C@H](CCCCN)NC(=O)CC[C@H](NC(=O)CCCCCCCCCCCCCCCCCCC(=O)O)C(=O)O)C(=O)N[C@@H](CC(N)=O)C(=O)N[C@@H]([C@@H](C)O)C(=O)N[C@@H](C)C(=O)N[C@@H]([C@@H](C)O)C(=O)N1)[C@@H](C)O)C(=O)N1CCC[C@H]1C(=O)N[C@@H](CO)C(=O)N[C@@H](CO)C(=O)N[C@H](C(=O)N[C@@H](CC(N)=O)C(=O)N[C@H](C(=O)NCC(=O)N[C@@H](CO)C(=O)N[C@@H](Cc1c[nH]cn1)C(=O)N[C@H](C(=O)N[C@@H](Cc1ccc(O)cc1)C(N)=O)[C@@H](C)O)C(C)C)[C@@H](C)O
notes: modifications are with respect to human amylin; also called compound 18
As to B3, the IC50 in assay [1] was 13 nM; in assay [4] it was 0.476 nM. For the same molecule, in assay [2], the “Ratio rCT/rAmylin binding” value amounted to 27.3. In addition, in assay [3], the “Ratio hCT/hAmylin binding” value worked out at 9.2.

B4: N^α1-[(4S)-4-carboxy-4-(19-carboxynonadecanoylamino)butanoyl]-[Glu14,Arg17,Pro21,Pro27,Pro31]-h-amylin (peptide)
peptide: {C20 diacid-γGlu}-KCNTATCATQRLAEFLRHSSPNFGAIPSSTPVGSNTY-NH2
modifications: disulfide 2-7
SMILES: CC[C@H](C)[C@H](NC(=O)[C@H](C)NC(=O)CNC(=O)[C@H](Cc1ccccc1)NC(=O)[C@H](CC(N)=O)NC(=O)[C@@H]1CCCN1C(=O)[C@H](CO)NC(=O)[C@H](CO)NC(=O)[C@H](Cc1c[nH]cn1)NC(=O)[C@H](CCCNC(=N)N)NC(=O)[C@H](CC(C)C)NC(=O)[C@H](Cc1ccccc1)NC(=O)[C@H](CCC(=O)O)NC(=O)[C@H](C)NC(=O)[C@H](CC(C)C)NC(=O)[C@H](CCCNC(=N)N)NC(=O)[C@H](CCC(N)=O)NC(=O)[C@@H](NC(=O)[C@H](C)NC(=O)[C@@H]1CSSC[C@H](NC(=O)[C@H](CCCCN)NC(=O)CC[C@H](NC(=O)CCCCCCCCCCCCCCCCCCC(=O)O)C(=O)O)C(=O)N[C@@H](CC(N)=O)C(=O)N[C@@H]([C@@H](C)O)C(=O)N[C@@H](C)C(=O)N[C@@H]([C@@H](C)O)C(=O)N1)[C@@H](C)O)C(=O)N1CCC[C@H]1C(=O)N[C@@H](CO)C(=O)N[C@@H](CO)C(=O)N[C@H](C(=O)N1CCC[C@H]1C(=O)N[C@H](C(=O)NCC(=O)N[C@@H](CO)C(=O)N[C@@H](CC(N)=O)C(=O)N[C@H](C(=O)N[C@@H](Cc1ccc(O)cc1)C(N)=O)[C@@H](C)O)C(C)C)[C@@H](C)O
notes: modifications are with respect to human amylin; also called compound 31
Turning to B4, the IC50 in assay [1] amounted to 26.5 nM; in assay [4], 0.619 nM. The “Ratio rCT/rAmylin binding” value in assay [2] was 42.8. Further, the “Ratio hCT/hAmylin binding” value in assay [3] came to 16.

B5: N^α1-[(4S)-4-carboxy-4-(19-carboxynonadecanoylamino)butanoyl]-[Glu14,Arg17,Pro21,Pro27,Pro34]-h-amylin (peptide)
peptide: {C20 diacid-γGlu}-KCNTATCATQRLAEFLRHSSPNFGAIPSSTNVGPNTY-NH2
modifications: disulfide 2-7
SMILES: CC[C@H](C)[C@H](NC(=O)[C@H](C)NC(=O)CNC(=O)[C@H](Cc1ccccc1)NC(=O)[C@H](CC(N)=O)NC(=O)[C@@H]1CCCN1C(=O)[C@H](CO)NC(=O)[C@H](CO)NC(=O)[C@H](Cc1c[nH]cn1)NC(=O)[C@H](CCCNC(=N)N)NC(=O)[C@H](CC(C)C)NC(=O)[C@H](Cc1ccccc1)NC(=O)[C@H](CCC(=O)O)NC(=O)[C@H](C)NC(=O)[C@H](CC(C)C)NC(=O)[C@H](CCCNC(=N)N)NC(=O)[C@H](CCC(N)=O)NC(=O)[C@@H](NC(=O)[C@H](C)NC(=O)[C@@H]1CSSC[C@H](NC(=O)[C@H](CCCCN)NC(=O)CC[C@H](NC(=O)CCCCCCCCCCCCCCCCCCC(=O)O)C(=O)O)C(=O)N[C@@H](CC(N)=O)C(=O)N[C@@H]([C@@H](C)O)C(=O)N[C@@H](C)C(=O)N[C@@H]([C@@H](C)O)C(=O)N1)[C@@H](C)O)C(=O)N1CCC[C@H]1C(=O)N[C@@H](CO)C(=O)N[C@@H](CO)C(=O)N[C@H](C(=O)N[C@@H](CC(N)=O)C(=O)N[C@H](C(=O)NCC(=O)N1CCC[C@H]1C(=O)N[C@@H](CC(N)=O)C(=O)N[C@H](C(=O)N[C@@H](Cc1ccc(O)cc1)C(N)=O)[C@@H](C)O)C(C)C)[C@@H](C)O
notes: modifications are with respect to human amylin; also called compound 32
Consider B5, for which the figures for the concentration for half-maximal inhibition (IC50) in assay [1] and in assay [4] were 5.98 nM and 0.176 nM, respectively. In assay [2], the “Ratio rCT/rAmylin binding” value was found to be 34. For the same molecule, in assay [3], the “Ratio hCT/hAmylin binding” value is 10.9.
